Assay results published in patent US20250026838A1 (TRUEBINDING, published 2025).

B1: 14H10.2C9-hIgG4 (S228P) (antibody, V domains shown)
VH: QIQLVQSGPELKKPGETVKISCKASGYTFTTYGMGWVKQAPGKDLKWMGWINTYSGVPTYADDFKGRFAFSLETSASTAYLQISNLKNEDTATYFCSTPYEYDGAYWGQGTLVTVSA
VL: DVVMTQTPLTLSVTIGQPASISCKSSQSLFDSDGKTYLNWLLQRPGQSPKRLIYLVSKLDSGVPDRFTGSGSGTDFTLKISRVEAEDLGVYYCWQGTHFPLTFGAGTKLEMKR
notes: also called QC200137; IMTAB0172
B2: 846.1F5-hIgG4(S228P) (antibody, V domains shown)
VH: QIQLVQSGPELKKPGETVKISCKASGYTFTNYGMNWVKQAPGKGLKWMGWINTYTGEPSYADDFKGRFAFSLETSASTAYLQINNLKNEDMATYFCARWGGYDGDYYAMDYWGQGTSVTVSS
VL: NIMMTQSPSSLAVSAGEKVTMSCKSSQSVLYSSNQKNYLAWYQQKPGQSPKLLIYWASTRESGVPDRFTGSGSGTDFTLTISSVQPEDLAVYYCHQYLSSLTFGAGTKLELK
notes: also called F846C.1F5; QC200110
B3: 846T.16B5-hIgG4(S228P) (antibody, V domains shown)
VH: QIQLVQSGPELKKPGETVKISCKASGYTFTNYGMNWVKQAPGKGLKWMGWINTYTGEPAYADDFKGRFAFSLETSASTAYLQINNLKNEDMATYFCARWGGYDGDYYAMDYWGQGTSVTVSS
VL: NIMMTQSPSSLAVSAGEKVTMSCKSSQSVLYSSNQKNYLAWYQQKPGQSPKLLIYWASTRESGVPDRFTGSGSGTDFTLTISSVQAEDLAVYYCHQYLSSLTFGAGTKLELK
notes: also called F846T.16B5; F846TC.16B5
B4: TB001 (antibody, V domains shown)
VH: QVQLVQSGSELKKPGASVKVSCKASGYTFTNYGMNWVRQAPGQGLKWMGWINTNTGEPTYVEEFTGRFVFSLETSVSTAYLQISSLKAEDTAVYFCAPYDNFFAYWGQGTTVTVSS
VL: DIVLTQSPLSLPVTPGEPASISCRSSKSLLYKDGKTYLNWFLQKPGQSPQLLIYLMSTHASGVPDRFSGSGSGTDFTLKISRVEAEDVGVYYCQQLVDYPLTFGGGTKLEIK
notes: also called hTB001; IMT001-4-HCLC (TB001)
B5: 846T.14A2-hIgG4(S338P) (antibody, V domains shown)
VH: QIQLVQSGPELKKPGETVKISCKASGYTFTNYGMNWVKQAPGKGLKWMGWINTYTGEPTYAGDLKGRFAFSLETSASTAYLQINNLKNEDTATYFCVRYTMDYWGQGTSVTVSS
VL: QAVVTQESALTTSPGETVTLTCRSSTGAVTTSNYANWVQEKPDHLFTGLIGGINNRVPGVPARFSGSLIGDKAALTITGAQTEDEAIYFCALWYSNHWVFGGGTKLTVL
notes: also called F846TC.14A2; QC200122
B6: 20D11.2C6-hIgG4(S228P) (antibody, V domains shown)
VH: EVQLQQSGPELVKPGASVKISCKASGYTFTDFYINWVKQSHGKSLEWIGDINPKNGGINYNPKFKIKATLTVDKSSSTSYMDLRGLTSEDSAVYYCTSGYGFPYWGQGTLVTVSA
VL: DIQMNQSPSSLSASLGDTITITCRASQNIYIWLSWYQQKPGNIPKLLIYKASNLHTGVPSRFSGSGSGTDFTLTISTLQPEDIATYFCLQGQSYPLTFGAGTKLEMKR
notes: also called QC200083
B7: 15G7.2A7-hIgG4(S228P) (antibody, V domains shown)
VH: EVQLQQSGPELVKPGASVKISCKASGYTFTDYYMNWVKQSHGKSLEWIGDINPNNGGTNYNQKFKGKATLTVDKSSSTAYMELRSLTSEDSAVYYCTSGYGFPYWGQGTLVTVSA
VL: DIQMNQSPSSLSASLGDTISITCRASQNINIWLSWYQQKPGNIPQLLIYKASNLHTGVPSRFSGSGSGTDFTLTISSLQPEDIATYYCLQGQSYPLTFGAGTKLVMK
notes: also called QC200074
B8: 84712F12-hIgG4(S288P) (antibody, V domains shown)
VH: QIQLVQSGPELKKPGETVKISCKASGYTFTNYGMNWVKQAPGKGLKWMGWINTYTGEPTYVDDFKGRFAFSLETSASTAYLRINNLKNEDTATYFCAKFGNYVGAMDYWGQGTSVTVSS
VL: DIQVIQSPSSLSASLGDTITITCHASQNINVWLSWYQQKPGNIPKLLIYKASNLHTGVPSRFSGSGSGTGFTLTISSLQPEDIATYYCQQGQSYPYTFGGGTKLELK
notes: also called 847.12F12-hIgG4 (S228P); F847C.12F12
B9: TB006 (antibody, human IgG4 S228P, kappa, V domains shown)
VH: QVQLVQSGAEVKKPGASVKVSCKASGYSFTNYYMHWVRQAPGQRLEWMGWIYPGSGNTNYNEKFQGRVTITADTSASTAYMELSSLRSEDTAVYYCSTAPGGFDVWGQGTTVTVSS
VL: DIVMTQTPLSLSVTPGQPASISCKSSKSLLHSDGITYLYWYLQKPGQSPQLLIYRMSNLASGVPDRFSGSGSGTDFTLKISRVEAEDVGVYYCAQMLEFPLTFGQGTKLEIKR
notes: also called hTB006; hTB006Ab
B10: 846.1H12-hIgG4(S228P) (antibody, V domains shown)
VH: QIQLVQSGPELKKPGETVKISCKASGYTFTNFGMNWVKQAPGKGLKWMGWINTYTGEPSYADDFKGRFAFSLETSASTAYLQINNLKNEDIATYFCARWGGYAGDYYAMDYWGQGTSVTVSS
VL: NIMMTQSPSSLAVSAGQKVTMSCKSSQSVLYSSSQKNYLAWYQQKPGQSPKLLIYWASTRESGVPDRFSGSGSGTDFTLTISSVQPEDLAVYYCHQYLSSLTFGAGTKLELK
notes: also called F846C.1H12; QC200172 IMTAB0196

These binders were tested against T1, Human Galectin-3 (Gal3) protein (human, UniProt P17931 1-250) (assay: competition ELISA, hGal3 coated; competitor: biotinylated aggregated alpha-synuclein).
T1 construct: also called hGal3; rhGal-3
T1 sequence (P17931 whole entry): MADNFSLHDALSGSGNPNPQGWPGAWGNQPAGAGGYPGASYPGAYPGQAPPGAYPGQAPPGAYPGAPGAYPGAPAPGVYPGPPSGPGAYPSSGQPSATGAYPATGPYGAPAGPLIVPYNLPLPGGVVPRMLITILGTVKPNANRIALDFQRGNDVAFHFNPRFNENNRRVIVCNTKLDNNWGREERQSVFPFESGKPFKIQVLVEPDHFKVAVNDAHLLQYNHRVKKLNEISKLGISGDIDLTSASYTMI
B1 showed a blocking efficacy of over 70%.
B2 was tested, and the blocking efficacy was over 70%.
For B3, the blocking efficacy was over 70%.
With B4 the blocking efficacy was over 70%.
B5 showed a blocking efficacy of over 70%.
B6 showed a blocking efficacy of over 70%.
B7 gave a blocking efficacy of over 70%.
With B8 the blocking efficacy was over 70%.
In the case of B9, the blocking efficacy is reported as over 70%.

Each binder was assayed against T1, Human Galectin-3 (Gal3) protein (assay: competition ELISA, hGal3 coated; competitor: biotinylated hTGFβR2).
B1 gave a blocking efficacy of over 90%.
Work on B10 yielded a blocking efficacy of over 90%.
For B9, the blocking efficacy was over 90%.
